Values quoted from earlier work, collected in paper PMC3971948.

Target: Asp85 (UniProt position 98, WAQYADWLFTT)
Conditions: Initial unphotolysed BR state of the R82Q mutant

**Q.** For “Bacteriorhodopsin R82Q (Halobacterium salinarum; R82Q)”, which pKa is on record?
**A.** up to ∼7
